The values that follow come from PMC5444726, “A CD44-specific peptide, RP-1, exhibits capacities of assisting diagnosis and predicting prognosis of gastric cancer” (Oncotarget, 2017).

Peptide text beside a SMILES is read from it. * marks the point of attachment. FITC = O=C1OC2(c3ccc(O)cc3Oc3cc(O)ccc32)c2ccc(NC(=S)*)cc21

Data set [1] concerns BGC-823 cells. The format is cell-based, human. Particulars: 200 µM.
For data set [2], the system named is nude mice. The data set can be described thus: In vivo toxicity in nude mice (body weight, H&E staining). Particulars: 1 mg/kg i.v., one week.
Experimental: All animal procedures were approved by the Ethics Committee of Xi’an Jiaotong University and conducted in accordance with the Helsinki Declaration (1975). Athymic nude mice (male, 4–5 weeks old, with a body weight of 20–25 g) were obtained from the Animal Experiment Center of Xi’an Jiaotong University, Xi’an, China. The SGC-7901 tumor xenografts were generated by subcutaneous injection of 5–8 × 10^6 SGC-7901 cells suspended in 200 μL culture medium into the left axilla of mice. The cells were allowed to grow for 2 weeks until tumor volume reached an estimate of 1 cm^3.
Cell Counting Kit-8 (CCK-8, Beyotime, Shanghai, China) assay and animal experiments were performed to evaluate the in vitro and in vivo toxicity of RP-1 peptide, respectively. For CCK-8 assay, 5 × 10^3 MKN-28, SGC-7901, BGC-823 and GES-1 cells in 100 μL culture medium were incubated into each well of a 96-well plate 24 h before peptide was added. All cells were incubated with FITC-RP-1 0.064 to 200 μM. After incubation for 24 h, 48 h or 72 h, 10 μL CCK-8 reagent were added into each well and further incubated for 3 h. Then, the absorbance at 450 nm was measured with a microplate reader (Bio-Rad, Hercules, CA, USA). In animal experiments, FITC-RP-1 or PBS 1 mg/kg was intravenously injected via the tail vein. The body weight of nude mice was measured every day. […]
Data set [3] concerns MKN-28 cells. The format is cell-based, human. To be noted: 200 µM.
For data set [4], the system named is human gastric epithelial cell line GES-1. The format is cell-based. Particulars: 200 µM.
For data set [5], the system named is SGC-7901 cells. The format is cell-based, human. To be noted: 200 µM.
For data set [6], the system named is SGC-7901 cells. The data set can be described thus: Binding affinity to gastric cancer cells (fluorescence saturation). To be noted: FITC-labeled peptide, 0 to 2.5 μM at 0.25 μM intervals, serum-free RPMI 1640, ambient temperature, 15 min, microplate reader; least squares fit, R^2 = 0.98; read-out: equilibrium dissociation constant (Kd). Details: species or system human. The procedure: 5 × 10^5 SGC-7901 cells were inoculated into each well of a multi-well plate 24h before measurement. Both FITC- RP-1 and FITC-WYP peptide were serially diluted with RPMI 1640 culture medium containing no serum at concentrations ranged from 0 to 2.5 μM at 0.25 μM intervals, and incubated with SGC-7901 cells at ambient temperature for 15 min [40]. After washing twice with pre-cold PBS/0.2% Tween-20 solution, the unbound peptide was rinsed off, and cells were subsequently fixed in 4% paraformaldehyde at ambient temperature for 20 min. […] The equilibrium dissociation constant (Kd) was calculated using a least squares fit of the data with Origin 8.0 software (OriginLab, Massachusetts, USA). I was calculated using the Michaelis-Menten equation I = Imax([X])/(Kd+[X]), in which Imax was the maximum fluorescent intensity corresponding to peptide binding at saturation, which was calculated from the plots; I was the fluorescent intensity measured above; [X] was the concentration of total peptides and estimated to be the concentration of unbound peptide.

In data set [7] the test system is CD44 on MKN-28-CD44-ox cells. The data set can be described thus: Confocal immunofluorescence of peptide binding to CD44-overexpressing MKN-28 cells. The class given is cell-based, human. To be noted: 100 μM Alexa Fluor 594 labeled peptide, 20 min, fixed cells, confocal microscopy. How it is done:
Plasmids containing cDNA of CD44 protein were synthesized by GENECHEM, Shanghai, China. Using Pfu polymerase and two oligonucleotides ([…] and […]), the CD44 cDNA was cloned into Xhol and ECOR1 sites of GV146 (GENECHEM, Shanghai, China) by recombinant PCR. Then, CD44-negative MNK-28 cells were transfected with the plasmid with Lipofectamine 2000 reagent (Invitrogen, California, USA), and then the efficiency of CD44 expression in MKN-28 cells was tested. Finally, two cell lines were generated as following: MKN-28-con with no CD44 expression and MKN-28-CD44-ox with CD44 overexpression labeled with enhanced green fluorescent protein (EGFP).
For the preparation of confocal laser microscopy, the transfected MNK-28 cancer cells were washed with phosphate buffer saline (PBS) three times, then fixed with 4% paraformaldehyde at ambient temperature for 30 min, and blocked with 5% BSA (w/v) in PBS at 37°C for 1 h. The blocked cells were sequentially incubated with 100 μM RP-1 or WYP labeled with Alexa Fluor 594 for 20 min, and counterstained with 4,6-diamidino-2-phenylindole (DAPI). […] For the evaluation of the correlation of fluorescent intensities between CD44-EGFP and RP-1-Fluor 594, a semi-quantitative analysis was performed with ImageJ 1.48v software (National Institutes of Health, Maryland, USA) by randomly selecting and observing 10 fields of vision. […]

Data set [8] relates to SGC-7901 tumor tissue. In words: Fluorescence microscopy of frozen xenograft sections after injection. Particulars: 3 h after i.v. injection of peptide. The format is in vivo, athymic nude mice. The procedure:
Once fluorescence signal reached its peak at the site of tumor, subcutaneous tumor tissues were harvested for further experiment. After shock-frozen with liquid nitrogen, tumor tissues were cut into 5 μm sections and fixed in 4% paraformaldehyde at ambient temperature for 30 min. The coverslips were mounted with glycerol–gelatin containing anti-fading buffer (Bioworld, Minnesota, USA). Finally, the fluorescence images of frozen sections were captured with a fluorescent microscope (Nikon-Eclipse, Tokyo, Japan)

With `CC(C)C[C@H](NC(=O)[C@H](Cc1ccc(O)cc1)NC(=O)[C@H](CO)NC(=O)[C@H](Cc1c[nH]c2ccccc12)NC(=O)[C@@H]1CCCN1C(=O)[C@H](Cc1c[nH]cn1)NC(=O)[C@H](Cc1c[nH]c2ccccc12)NC(=S)Nc1ccc2c(c1)C(=O)OC21c2ccc(O)cc2Oc2cc(O)ccc21)C(=O)N[C@@H](Cc1c[nH]c2ccccc12)C(=O)N[C@H](C(=O)N[C@@H](CCC(N)=O)C(=O)N[C@@H](CCC(N)=O)C(=O)N[C@@H](C)C(=O)O)[C@@H](C)O` [FITC-RP-1] ({FITC}-WHPWSYLWTQQA-OH; N-terminus and C-terminus assumed), the cell viability is given as more than 84% in data set [1], “more than 85%” in data set [3], more than 91% in data set [4] and more than 86% in data set [5]. For the same compound, the toxicity in vivo result in data set [2] is given as “low toxicity in vivo”. For the same compound, the Kd in data set [6] amounted to 135 nM.
For “WYPLAHWQTSWQ [scrambled control peptide … consisting of the same amino acids as RP-1, reference compound]”, the “binding of peptide to CD44 on the cell membrane” value in data set [7] is “No fluorescent signal was detected”. In addition, in data set [8], the “fluorescence on tumor cells in frozen sections” value is given as “No fluorescence signal was detected”.

By cell viability is commonly meant a per cent measure of how many cells are alive, often set against a control. The low end stands for more harm to the cells, the high end for less harm to the cells. In general, Kd refers to a measure of binding affinity in units of concentration.
